Measurements published in paper PMC10715030.

Experiments:
[1] = biological target: c-type human lysozyme (human) (UniProt P61626)
[2] = biological target: AP205 capsid virus-like particle displaying the complementary Catcher (SpyCatcher-VLP) (not stated | Acinetobacter phage AP205); assay: SDS-PAGE of covalent Tag/Catcher coupling (densitometry); N-SliC or C-SliC mixed with complementary SpyCatcher VLPs at a molar ratio of 1:3, 2 h, room temperature, PBS; covalently coupled band at ~45 kDa; coupling efficiency by densitometry (ImageQuant)

UniProt P61626, sequence (P61626 19-148): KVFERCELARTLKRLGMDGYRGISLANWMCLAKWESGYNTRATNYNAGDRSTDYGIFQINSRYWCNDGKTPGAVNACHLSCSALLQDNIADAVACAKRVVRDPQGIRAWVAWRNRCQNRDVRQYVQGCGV

Work on “SliC with the N-terminal SpyTag (N-SliC)” yielded a lytic activity of HL (2.5 µM) on DQ lysozyme substrate (EnzChek Lysozyme Assay Kit), N-SliC 0-5 µM, 30 min at 37°C before substrate [1] greater than 1.25 µM, a cVLP subunits carrying SliC (of 180) (subunits per cVLP) [2] of 140 and a coupling efficiency [2] of 77%.
